Experiment [1] addresses G-CSFR on mouse bone marrow cells (mouse) (UniProt P40223). Nature of the experiment: radiolabeled G-CSF on bone marrow cells from vavCre+SOCS3-/fl mice, with and without excess unlabeled G-CSF.
Experiment [2] has the same target. Nature of the experiment: radiolabeled G-CSF on bone marrow cells from control vavCre-SOCS3+/fl mice, with and without excess unlabeled G-CSF.

Chain of UniProt P40223 (P40223 26-837): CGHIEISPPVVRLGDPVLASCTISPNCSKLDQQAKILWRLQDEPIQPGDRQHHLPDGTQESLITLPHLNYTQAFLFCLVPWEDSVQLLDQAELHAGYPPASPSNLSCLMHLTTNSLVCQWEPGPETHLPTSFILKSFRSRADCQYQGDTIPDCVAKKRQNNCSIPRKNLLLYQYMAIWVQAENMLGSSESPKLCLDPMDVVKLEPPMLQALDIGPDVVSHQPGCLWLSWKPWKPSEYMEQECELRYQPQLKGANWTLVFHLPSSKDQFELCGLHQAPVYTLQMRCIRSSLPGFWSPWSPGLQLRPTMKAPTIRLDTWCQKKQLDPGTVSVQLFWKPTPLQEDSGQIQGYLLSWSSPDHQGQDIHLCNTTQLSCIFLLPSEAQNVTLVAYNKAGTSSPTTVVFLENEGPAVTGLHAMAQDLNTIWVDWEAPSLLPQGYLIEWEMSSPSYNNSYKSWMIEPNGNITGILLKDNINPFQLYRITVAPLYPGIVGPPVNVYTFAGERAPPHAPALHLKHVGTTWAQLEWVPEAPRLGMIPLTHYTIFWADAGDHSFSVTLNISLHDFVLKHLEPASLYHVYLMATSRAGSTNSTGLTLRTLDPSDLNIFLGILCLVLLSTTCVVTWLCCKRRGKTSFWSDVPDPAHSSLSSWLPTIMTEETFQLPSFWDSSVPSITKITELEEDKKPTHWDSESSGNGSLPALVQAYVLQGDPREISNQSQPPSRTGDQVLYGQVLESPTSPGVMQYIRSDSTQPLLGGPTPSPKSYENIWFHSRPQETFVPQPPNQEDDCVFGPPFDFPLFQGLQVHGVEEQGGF

For radiolabeled G-CSF (ligand), the cpm bound in experiment [1] is 1700 cpm; in experiment [2], 1880 cpm.

(Values after patent US20070275916A1.)
